Measurements: PMC7529705 (Biochemistry, 2020)

Target: WD-40 repeat-containing protein 5 (WDR5), full-length (human, UniProt P61964 1-334)
Test: ITC

Kd: 10.6 ± 0.8 µM
Binder: ARTKQTARKSTG [Histone H3 1–12aa unmodified peptide]
